Laboratory results published in patent US6350431B1, “Compounds” (Nycomed Imaging AS, priority 1997, dated 2002).

Assays:
HT-29 tumors [1] = assay: Biodistribution of chromophore-polymer in HT-29 tumored mice after intravenous injection; type: in vivo, female immunodeficient mice; conditions: for injected dose localized in the tumor: after one hour, solution in phosphate buffered saline injected
Experimental: General Method Used For the Measurement of Chromophore-Polymer Distribution in the Mouse
Tac:N:NIH(S)-nufDF, female immunodef icient mice
Tac:Cr:NCr-nufBr, female immunodeficient mice
HT29-Human Colon Carcinoma
The mice were randomised into groups based on tumor volumes. On the day of the study, the test articles (Polymers 1,2) were injected into the mice via the tail vein. Chloroaluminium phthalocyanine tetrasulfonate was used as a reference compound (control) in one group of mice in these studies. […] The blood was collected by heart puncture and put into either EDTA or Lithium Heparin tubes. The samples were then spun down and the plasma was collected and weighed. The spleen, liver, kidneys, muscle and tumor were collected, rinsed with PBS and weighed in pre-tared tubes. The samples were then either refrigerated for immediate analysis or frozen at −20 degrees Celsius and subsequently analysed.
B) Plasma Collection and Preparation
Plasma was collected in tared Eppendorf tubes and the tubes were weighed. To each tube was added 1 mL of ethanol. The contents of the tubes were mixed with a vortex mixer and then micro-centrifuged at 14000 rpm for 2 min. The supernatant liquid was transferred by pipette into a clean and labelled Eppendorf tube. This procedure was repeated for all plasma samples. Each sample was transferred to a clean cuvette and the amount of chromophore was determined by absorbance at a predetermined wavelength. Concentration of the chromophore in the sample was determined by comparison with a standard curve generated from known concentrations of chromophore.
C) Organ Collection and Preparation
Organs were removed from the mice, placed in tared sample tubes, and the new weights were recorded. To each tube was added 1 mL of deionised water, and the organs were homogenised. The homogenate was transferred into a tared Eppendorf tube and the weight was recorded. To this homogenate was added 500 μl of ethanol, the mixture was mixed by vortex mixer, and the contents of the tube was centrifuged in a micro-centrifuge at 8000 rpm for 2 min. The supernatant was transferred by pipette into a clean Eppendorf tube. To the residual pellet was added 500 μl of ethanol, the mixture was mixed by shaking vigorously in a vortex mixer, and the sample was centrifuged again. The supernatants were combined, transferred to a clean cuvette, and the concentration of the chromophore was determined spectroscopically at pre-determined absorbance by comparison with the standard curve. The mean concentration of the chromophore in each organ was determined by regressional analysis.

Solubility of Sudan III = type: physicochemical
HT-29 tumors [2] = assay: Photographic / visual light imaging of HT-29 tumors from mice 24 hours post injection of contrast agent; type: in vivo, female immunodeficient mice
Experimental: FIG. 4 is a photograph taken under room fluorescent light of female immunodeficient mice with exposed human HT-29 tumors 24 hours post intravenous (tail vein) injection with 0.1 mg/(g body weight) in PBS of the blue contrast agent NC100526. The labeled sheet to the right of the mice was spotted with PBS solutions of several contrast agents of this invention and then dried in order to show how they appear under various illumination and imaging conditions. The tumors (indicated by arrows) have been sliced to expose their interiors as well as their exteriors.
The light source was ambient fluorescent room light.
The photograph was taken with black-and-white infrared film using irradiation at 780 nm from an array of light-emitting diodes. These conditions gave maximum absorption and contrast enhancement of NC100448 as evidenced by the darkened spot of contrast agent on the paper chart.
FIGS. 8a and 8b are photographs of two views taken from different angles of HT-29 tumors sliced open and removed from mice at 24 hours post injection with 10 mg/(g body weight) of NC100505 in PBS and irradiated with 366 nm wavelength light. […] In the black and white photograph they appear as bright spots. Other organs and the skin appear normal.
FIG. 10a is a photograph of a collection of excised tumors viewed under ambient fluorescent room light. The top row contains tumors resected from mice at 24 hours post i.v. injection with NC100505 in PBS. The second, third, and fourth rows are tumors resected from mice 24 hours post i.v. injection with PBS solutions of NC100526, NC100448, and NC100524, respectively. […]
FIG. 11 is a photograph of a set of excised tumors irradiated with 780 nm infrared light that were removed from mice 24 hours post injection with PBS solutions of NC100448 (top row) and indocyanine green (bottom row). The image was recorded with an infrared sensitive CCD camera (Bischke, Type N-CCD-4024, fitted with a Computar TV Zoom lens 1:1.2/12.5-75) on VHS tape (Maxell HGX Plus) at 30 frames/sec using a Panasonic AG-1310P HQ Video Cassette Recorder with super 4-Head VHS SQPB). […]

[3] = female immunodeficient mice with HT-29 tumors
[4] = one hour post intravenous injection of phosphate buffered saline solution, mice with HT-29 tumors
[5] = three hours post intravenous injection of phosphate buffered saline solution, mice with HT-29 tumors
[6] = 6 hr after injection, Table 2, female immunodeficient mice with HT-29 tumors
[7] = 48 hr after injection, Table 2, mice with HT-29 tumors
[8] = within 24 hours, Table 2 experiment
[9] = 3 hr, i.v. 0.05 mg/(g body weight) in PBS, HT 29 tumored mice
[10] = 6 hr, i.v. 0.05 mg/(g body weight) in PBS, HT 29 tumored mice
[11] = 24 hr, i.v. 0.05 mg/(g body weight) in PBS, HT 29 tumored mice
[12] = at 24 hours, i.v. 0.05 mg/(g body weight) in PBS
[13] = three hours versus one hour post intravenous injection

Compound: ClAlPc(SO2NHPEG5000)4 [Example 20]
- injected dose localized in the tumor (HT-29 tumors [1]; [3]): 2.5%

Compound: CC1(C)C(/C=C/C=C/C=C/C=C2\N(CCCCS(=O)(=O)O)c3ccc4ccccc4c3C2(C)C)=[N+](CCCCS(=O)(=O)[O-])c2ccc3ccccc3c21 [indocyanine green, reference compound]
- detection in the tumor (HT-29 tumors [1]; [4]): negligibly detected
- detection in the tumor (HT-29 tumors [1]; [5]): negligibly detected

Compound: [PcAlCl(SO3H)3SO2NH]2[PEG 10,000] [NC100481]
- Muscle (HT-29 tumors [1]; [6]): 10.3 ± 17.9 percent injected dose of the contrast agent per gram of tissue
- Plasma (HT-29 tumors [1]; [6]): 7.4 ± 0.3 percent injected dose of the contrast agent per gram of tissue
- Tumor (HT-29 tumors [1]; [6]): 21.0 ± 7.1 percent injected dose of the contrast agent per gram of tissue
- Tumor (HT-29 tumors [1]; 24 hr after injection, Table 2, mice with HT-29 tumors): 16.6 ± 3.9 percent injected dose of the contrast agent per gram of tissue
- Muscle (HT-29 tumors [1]; [7]): 59.5 ± 42.9 percent injected dose of the contrast agent per gram of tissue
- Tumor (HT-29 tumors [1]; [7]): 9.1 ± 4.5 percent injected dose of the contrast agent per gram of tissue
- concentration of contrast agent in the tumor (in words) (HT-29 tumors [1]; after 48 hours, Table 2 experiment): remained at a high concentration
- clearance of contrast agent from the blood (in words) (HT-29 tumors [1]; [8]): cleared
- clearance of contrast agent from the muscle (in words) (HT-29 tumors [1]; [8]): cleared

Compound: Oc1ccc2ccccc2c1N=Nc1ccc(N=Nc2ccccc2)cc1 [Sudan III]
- solubility in sesame oil (Solubility of Sudan III): soluble in sesame oil
- solubility in water (Solubility of Sudan III): very water insoluble

Compound: [NH(PEG3400)NHSO2PcAlCl (SO3H)2SO2]n [Example 18]
- injected dose localized in the tumor (HT-29 tumors [1]; [3]): 4%

Compound: Bisthioether 2:1 Dye:Polymer Reaction Product Between 2-[2-[2-chloro-3-[[1,3-dihydro-1,1,-dimethyl-3-(3-sulfopropyl)-2H-benz[e]indol-2-ylidene]ethylidene]-5-(ethoxycarbonyl)-1-cyclohexen-1-yl]ethenyl]-1,1-dimethyl-3-(3-sulfopropyl)-1H-benz[e]indolium, Inner Salt, Sodium Salt and Disodium PEG3,400-α,ω-dithiolate [NC100448]
- Plasma (HT-29 tumors [1]; [9]): 14.33 ± 1.33 percent injected dose of the contrast agent per gram of tissue
- Tumor (HT-29 tumors [1]; [9]): 5.57 ± 0.73 percent injected dose of the contrast agent per gram of tissue
- Plasma (HT-29 tumors [1]; [10]): 8.44 ± 1.33 percent injected dose of the contrast agent per gram of tissue
- Tumor (HT-29 tumors [1]; [10]): 8.6 ± 1.53 percent injected dose of the contrast agent per gram of tissue
- Plasma (HT-29 tumors [1]; [11]): 0.46 ± 0.40 percent injected dose of the contrast agent per gram of tissue
- Tumor (HT-29 tumors [1]; [11]): 7.53 ± 0.74 percent injected dose of the contrast agent per gram of tissue
- clearance of contrast agent from the blood (in words) (HT-29 tumors [1]; [12]): largely cleared
- concentration of contrast agent in the tumors (in words) (HT-29 tumors [1]; [12]): remained relatively high
- contrast agent in the muscle (in words) (HT-29 tumors [1]; [12]): not increased
- detection in the tumor (HT-29 tumors [1]; [4]): detected in the tumor
- detection in the tumor (HT-29 tumors [1]; [5]): detected in the tumor
- concentration of the contrast agent in the blood, FIG. 3B relative to FIG. 3A (HT-29 tumors [1]; [13]): decreased
- concentration of the contrast agent in the tumor, FIG. 3B relative to FIG. 3A (HT-29 tumors [1]; [13]): increased
- appearance of tumors, black-and-white infrared film, irradiation at 780 nm (HT-29 tumors [2]; 24 hours after injection of 0.05 mg/(g body weight) in PBS, versus control tumors): uniformly darker than control tumors
- appearance of excised tumors irradiated with 780 nm infrared light, infrared sensitive CCD camera (HT-29 tumors [2]; 24 hours post injection in PBS, compared to tumors from mice injected with ICG): significantly darker
- contrast agent / darkening along the tumor edges (HT-29 tumors [2]; 24 hours post injection, sliced tumors): do not show darkening around the edges

Compound: chloroaluminum phthalocyanine tetrasulfonate [reference compound]
- detection in the tumor (HT-29 tumors [1]; [4]): negligibly detected

Compound: Aluminum Chlorophthalocyaninetetrasulfonyl Chloride Polymer With PEG3,400-α,ω-diamine [Polymer 1]
- injected dose localized in the tumor (HT-29 tumors [1]; [3]): 4%
- detection in the tumor (HT-29 tumors [1]; [4]): detected in the tumor

Compound: Aluminum Chlorophthalocyanine Tetrasulfonyl Chloride Polymer With PEG5,000-α,ω-diamine [Polymer 2]
- injected dose localized in the tumor (HT-29 tumors [1]; [3]): 2.5%
- detection in the tumor (HT-29 tumors [1]; [4]): detected in the tumor
